The text below walks through data of patent US11780907B2, “Human antibodies to influenza hemagglutinin” (Regeneron Pharmaceuticals, Inc., priority 2018, dated 2023).

What is called EC50 is the midpoint of the concentration-response curve.

Like-named read-outs stand apart in the source and are kept apart here.

For assay [1], the system named is A/Wisconsin/67/2005 (H3N2)-overexpressing 3T3 cells. To be noted: read-out: EC50 FcγRIIIA activation (ADCC-Glo reporter bioassay).
Assay [2] shares this test system. To be noted: read-out: EC50 ADCC with human donor PBMCs.

B1: H1H14612N2: fully human anti-influenza A group 2 HA monoclonal antibody, HCVR/LCVR SEQ ID NOs: 18/26 (antibody, V domains shown)
VH: EVQLVESGGGLVKPGGSLRLSCAASGFSFSGFSMNWVRQAPGKGLEWVSSISTSGNYMYYADSVKGRFTISRDNAKKSFSLQMNSLRAEDSAIYYCARGGGYNWNLFDYWGQGSLVTVSS
VL: EIVLTQSPGTLSLSPGERATLSCRASQSLNSNYLAWYQQKPGQAPRLLIYGASSRATGIPDRFSGSGSGADFTLTISRLESEDFAVYYCQQYGNSPLTFGGGTKVEIK
With B1, the EC50 worked out at 0.688 nM in assay [1] and 0.176 nM in assay [2].
